Test results as given in the supplement of paper PMC10567573.
± gives the standard deviation.

Test: protein stability index of a GFP-peptide fusion (GPS, HEK-293T) (PSI 1-6); higher = more stable
[1] = treatment: DMSO, c terminus: a fixed tail appended
[2] = treatment: MLN4924 1 uM, 8 h, c terminus: a fixed tail appended
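Note: 24-mer peptide tiles fused after GFP, lentivirally expressed, FACS-sorted into six equal bins by GFP/DsRed ratio, decoded by Illumina sequencing, PSI is the read-weighted mean bin number.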

Row | Sequence | protein stability index [1] | protein stability index [2] | protein stability index (treatment: DMSO, c terminus: native) | protein stability index (treatment: MLN4924 1 uM, 8 h, c terminus: native)
1 | LRKKKTTKLRLERVKFRRQEANAR [NEUROD6] | 3.59 ± 0.34 | 3.59 ± 0.27 | – | –
2 | NHEEEVNTLRSQLGDRLNVEVDTA [KRT34] | 5.4 ± 0.33 | 5.441 ± 0.028 | – | –
3 | VDRLPGLQGALDLLAVLCVDGSGR [ZSWIM9] | 2.01 ± 0.34 | 2.27 ± 0.24 | – | –
4 | EGSLEWDILEVKRLLDHQDNILSL [WDR41] | 2.42 ± 0.2 | 2.53 ± 0.21 | – | –
5 | AKDLRAPPEQGKIFIARRSLLDEL [SOAT1] | 3.23 ± 0.37 | 3.15 ± 0.33 | – | –
6 | SNCISGVCSVRGGEGRSRGSANDY [KRT71] | 3.93 ± 0.36 | 4.23 ± 0.084 | – | –
7 | LPRRRGLRKKKTTKLRLERVKFRR [NEUROD6] | 3.85 ± 0.27 | 3.97 ± 0.29 | – | –
8 | VGLIQAAQQLLCDEQAPQRQRLLA [DFFB] | 3.28 ± 0.12 | 3.19 ± 0.12 | – | –
9 | AEKKQELDKLRNEWASHTAALTNK [SASS6] | 4.38 ± 0.26 | 4.79 ± 0.25 | – | –
10 | YSFGSGGGYGSSFGGVDGLLAGGE [KRT17] | 2.84 ± 0.13 | 2.9 ± 0.098 | – | –
11 | FGLSILWVLLFTPCSFVCWYRPMY [SCAMP3] | 2.97 ± 0.37 | 3.48 ± 0.32 | – | –
12 | YTSPDKLKDIFMFITRQLKGLEDT [PDS5B] | 3.62 ± 0.19 | 3.84 ± 0.3 | – | –
13 | EQFHEAASKMESTIKPRRVEPVCS [CHCHD6] | 4.42 ± 0.31 | 4.61 ± 0.14 | – | –
14 | PDQEAEPQEAAGAQGRAGAPVPEP [EPB41L3] | 5.69 ± 0.21 | 5.69 ± 0.23 | – | –
15 | NSVISVCSSSNLAGNDDSFGSLPS [DLC1] | 4.18 ± 0.21 | 4.23 ± 0.24 | – | –
16 | ERPWIKRMIFKLFSQETVMKFVPR [APMAP] | 2.71 ± 0.75 | 2.48 ± 1.1 | – | –
17 | SKSLCHDEIENLLDSDHRELIGDY [CDC25B] | 4.13 ± 0.26 | 4.31 ± 0.27 | – | –
18 | NETADLGLDIGAQGEPLGYRQDDP [CTNNB1] | 5.41 ± 0.2 | 5.46 ± 0.23 | – | –
19 | QSWMWRGLTFLLPFLFFGHFWQLF [TMEM120A] | 2.66 ± 1.1 | 2.79 ± 0.25 | – | –
20 | AEGVVLSDSPDAADSTSFDVQLGD [PPTC7] | 5.4 ± 0.59 | 5.64 ± 0.15 | – | –
21 | YNQQQALIDQRYFQVLCSINSIIH [CEP70] | 2.32 ± 0.34 | 2.24 ± 0.23 | – | –
22 | DVVFEIQGTTVPAHRAILVARCEV [RHOBTB3] | 2.69 ± 0.85 | 2.51 ± 0.44 | – | –
23 | GFRESDSAKPASLRLLQHTPSARR [C6orf223] | 4.49 ± 0.38 | 4.67 ± 0.3 | – | –

Row | Sequence | protein stability index [1] | protein stability index [2] | protein stability index (treatment: DMSO, c terminus: native) | protein stability index (treatment: MLN4924 1 uM, 8 h, c terminus: native)
24 | NDRMSTRHDGYATNDGNHPSCQET [RBMY1A1] | 5.17 ± 0.19 | 5.22 ± 0.1 | – | –
25 | IFIIQACRGNQHDVPVIPLDVVDN [CASP6] | 2.71 ± 0.59 | 2.49 ± 0.7 | – | –
26 | VRAKGSQSGRHLQTHSNTIVVSLQ [STX5] | 2.48 ± 0.24 | 2.64 ± 0.075 | – | –
27 | TPIQLQELLALETALGGQCVDRQE [TCAP] | 4.52 ± 0.11 | 4.47 ± 0.26 | – | –
28 | ISSVLAGGSCRAPSTYGGGLSVSS [KRT16] | 2.38 ± 0.33 | 2.27 ± 0.27 | – | –
29 | QEPEVPCAAVLPGKPGDRNCPEFP [RSPH3] | 5.21 ± 0.12 | 5.13 ± 0.14 | – | –
30 | LHPFFAGLTPEERSFHTSRNPSR [CLK3] | – | – | 2.72 ± 0.38 | 2.73 ± 0.52
31 | LAGGLCVGIYATNSAEACQYVITH [ACSBG2] | 2.84 ± 1.1 | 2 ± 0.36 | – | –
32 | VLKTSRSTPLSPAYISLVEEEDQH [KLHL13] | 4.77 ± 0.13 | 4.91 ± 0.17 | – | –
33 | LDRHQLPLDDALLSFAHANCTLII [DPCD] | 2.69 ± 0.56 | 2.63 ± 0.48 | – | –
34 | ILKRTGQRYEHGRTLKSYLGLTNQ [ZNF649] | 2.44 ± 0.24 | 2.63 ± 0.099 | – | –
35 | LHSHRHLYPEGIGARQQQVTTYLH [POMT2] | 2.76 ± 0.21 | 2.82 ± 0.2 | – | –
36 | QPAKKPLLWSDPADNKIVSHLLVA [ESRRG] | 2.36 ± 0.17 | 2.63 ± 0.26 | – | –
37 | YDGRSRLSSVECLDYTADEDGVWY [KLHL12] | 3.55 ± 0.4 | 3.76 ± 0.35 | – | –
38 | KIKDARKGPLVPFPNQKSEAAEPP [KMT5A] | 4.95 ± 0.22 | 5.11 ± 0.19 | – | –
39 | LLLPGLNQHGIILKYIGMAKREIN [ARL6IP1] | 2.42 ± 0.68 | 2.38 ± 0.97 | – | –
40 | DALQRYGTSHGAPPARGPRMSYGG [RBMY1A1] | 3.82 ± 0.23 | 3.82 ± 0.21 | – | –
41 | TAISSFTRHVFTCGRRGIKVWSLT [TLE6] | 2.15 ± 0.47 | 2.16 ± 0.44 | – | –
42 | PTPDDHVFRWLAYSYASTHRLMTD [CPXM2] | 2.64 ± 0.49 | 2.62 ± 0.59 | – | –
43 | AKVNILLVENDQQLQKILSIPQSS [ACSBG2] | 2.21 ± 0.17 | 2.07 ± 0.18 | – | –
44 | PYTPSPSSSRPISPGLSYASHTVG [CCDC6] | 3.84 ± 0.17 | 3.69 ± 0.19 | – | –
45 | YRFRMKCHLCVNYIEMQTDPANCD [YJU2B] | 2.3 ± 0.31 | 2.26 ± 0.17 | – | –
46 | REHAKARVDHGAEIITQSPGRSSV [MAP2] | 4.75 ± 0.11 | 4.89 ± 0.12 | – | –

Row | Sequence | protein stability index [1] | protein stability index [2] | protein stability index (treatment: DMSO, c terminus: native) | protein stability index (treatment: MLN4924 1 uM, 8 h, c terminus: native)
47 | LCQCHEGFALNPDKKTCTKIDYCA [MATN2] | 2.95 ± 0.29 | 3.35 ± 0.6 | – | –
48 | MTQQGAALQNYNNELVKCIEELCQ [SSNA1] | 3.33 ± 0.4 | 3.4 ± 0.31 | – | –
49 | EITTLRQVLSAKERHLVEIKQKLG [TPD52L1] | 2.97 ± 0.57 | 3.16 ± 0.12 | – | –
50 | KDGKNWNSNQATDIMETSGWKSMI [SPOPL] | 3.38 ± 0.32 | 3.54 ± 0.4 | – | –
51 | QPPEFRNESSLASTLKTLLFFTAL [VMA21] | 2.42 ± 0.32 | 2.39 ± 0.11 | – | –
52 | VTLAAHFLGLGAPNCLSMGSRCLK [ZBED1] | 2.26 ± 0.37 | 2.19 ± 0.21 | – | –
53 | ASKEEKEDWLSHALSRKKSQGLAR [FBF1] | 4.57 ± 0.18 | 4.57 ± 0.32 | – | –
54 | MDSGCWLFGGEFEDSVFEERPERR [C8orf76] | 4.06 ± 0.33 | 4.29 ± 0.27 | – | –
55 | LEALIDTIQKQLKDHSCKDNIREA [EFHC1] | 3.55 ± 0.21 | 3.65 ± 0.25 | – | –
56 | RVQAAAFGPGQTLLSSVHVLDLEA [ALKBH7] | 3.02 ± 0.42 | 3.3 ± 0.32 | – | –
57 | MLWEHNSTIVVMLTKLREMGREKC [PTPRD] | 2.33 ± 0.55 | 2.15 ± 0.2 | – | –
58 | HQDVPSQDDSKPTQRQFTILNFND [AASDHPPT] | 4.59 ± 0.27 | 4.76 ± 0.32 | – | –
59 | WDKHACPAYVGPEILSSRASYSGK [TRIB3] | 3.53 ± 0.096 | 3.5 ± 0.24 | – | –
60 | DEKQQEANETLAEMEEELRYAPLS [VTI1B] | 5.55 ± 0.15 | 5.55 ± 0.2 | – | –
61 | APWLSLFPPEGNMEDKEMTGPQLP [ZNF263] | 4.27 ± 0.27 | 4.75 ± 0.28 | – | –
62 | AKPNMIISVNGDVITIKSESTFKN [FABP4] | 3 ± 0.56 | 3.03 ± 0.66 | – | –
63 | EENMERIGEEVRQLMEKLREKQLS [BEX1] | 4.57 ± 0.38 | 4.35 ± 0.5 | – | –
64 | PPYQGGPPRPPMGMRPPVMSQGGR [ZNF207] | 4.68 ± 0.34 | 4.91 ± 0.16 | – | –
65 | EVPLEVLRQRESKWLDMLNNWDKW [TBC1D10A] | 2.8 ± 0.18 | 3.17 ± 0.49 | – | –
66 | GVNPDQVEKIRKLPNTLLRKDKDV [ANKRD40] | 4.63 ± 0.35 | 4.73 ± 0.26 | – | –
67 | MAGRPHPYDGNSSDPENWDRKLHS [BTBD10] | 4.63 ± 0.086 | 4.71 ± 0.088 | – | –
68 | FEYRGEQHKTCMLNATSKFMEFYQ [EDNRA] | 2.08 ± 0.36 | 1.89 ± 0.32 | – | –
69 | LPSSGEGLAFFTFPNIASATKFKQ [HMOX1] | 2.75 ± 0.43 | 2.87 ± 0.18 | – | –

Row | Sequence | protein stability index [1] | protein stability index [2] | protein stability index (treatment: DMSO, c terminus: native) | protein stability index (treatment: MLN4924 1 uM, 8 h, c terminus: native)
70 | EAEALAGTGLVLDEQLNEFHCLWD [HDAC6] | 4.29 ± 0.061 | 4.15 ± 0.45 | – | –
71 | AMEVNTSASEILYSAPPGDPLSTN [NFE2L1] | 4.45 ± 0.27 | 4.55 ± 0.23 | – | –
72 | SWDTESSGSDSGGSSSSSSSSINS [FAM104A] | 5.25 ± 0.22 | 5.1 ± 0.26 | – | –
73 | MWRDLTDEEKQEYLNEYEAEKIEY [SMARCE1] | 4.26 ± 0.4 | 4.35 ± 0.21 | – | –
74 | DEWACELRLFGRVLERAACLRRCK [P3H4] | 2.74 ± 0.49 | 2.8 ± 0.6 | – | –
75 | LVKNLKDTLGLGKTRRKTSARDAS [NCK2] | 3.19 ± 0.38 | 3.35 ± 0.3 | – | –
76 | LHIFQLNEDGPSSENLEEETENII [TRIP13] | 3.96 ± 0.58 | 4.21 ± 0.28 | – | –
77 | PLDMFSEEIKFYELGEEAMEKFRE [KCNA1] | 4.71 ± 0.31 | 4.85 ± 0.12 | – | –
78 | FVSFFNKWDAENAIQQMGGQWLGG [TIA1] | 2.69 ± 0.78 | 2.1 ± 0.59 | – | –
79 | LLGSSTACIVVLDRTSHRLHTANL [PPTC7] | 2.66 ± 0.39 | 2.46 ± 0.32 | – | –
80 | ILTTSNITEKIDVAFVDRADIKQY [TRIP13] | 2.88 ± 0.2 | 3.02 ± 0.12 | – | –
81 | FHEVGTEMIITKAGRRMFPSYKVK [TBX5] | 2.35 ± 0.35 | 2.72 ± 0.33 | – | –
82 | LAVCLAPSLFHLNTLKRENSSPRV [DLC1] | 2.24 ± 0.24 | 2.11 ± 0.2 | – | –
83 | ISFHFEVTNHNIRLFEDVRSWMFR [TRIM43] | 2.7 ± 0.96 | 3.24 ± 0.28 | – | –
84 | SYYNSPGLHVQHMGTSHGITRPSP [CCDC6] | 3.2 ± 0.29 | 3.24 ± 0.39 | – | –
85 | PKTMSQKEMEQLFSQYGRIITSRI [ELAVL3] | 2.68 ± 0.18 | 2.76 ± 0.35 | – | –
86 | TGPRLSFPLLPDHATALVEAFRLK [PPEF2] | 2.89 ± 0.23 | 3.07 ± 0.19 | – | –
87 | TEVPYATFTEHPMKYTSEKFLEIC [TPRG1] | 2.64 ± 0.068 | 2.75 ± 0.12 | – | –
88 | LTVRLHTQSVSECITEDGRTVAVG [PWWP2B] | 3.2 ± 0.33 | 3.15 ± 0.044 | – | –
89 | TDLEMQIEGLKEELAYLRKNHEEE [KRT16] | 5.24 ± 0.098 | 5.45 ± 0.23 | – | –
